According to patent US9388243B2, “Method of target membrane protein depletion” (Samsung Electronics Co., Ltd., priority 2013, dated 2016):

Biological target: T1, EGFR in MKN45 stomach cancer cells (Homo sapiens, UniProt P00533)
T1 construct: endogenous in cells; host or cells: MKN45 (JCRB)
Experiment: Confocal microscopy of EGFR internalization and degradation in MKN45 cells
Format: cell-based
Details: MKN45, 5 μg/ml each, 4 hrs, confocal images (FIGS. 5-7)
Procedure: Each antibody was used at a density of 5 μg/ml/well, whether individually or in combination. For control, the cells were treated with PBS only. The cells were immobilized onto the plates by treatment with 4% (v/v) formaldehyde for 15 min, washed three times with PBS, and then blocked with a blocking buffer (0.5% triton x-100 and 5% donkey serum) at room temperature for 1 hr. […] The cells were washed again three times with PBS, and incubated at room temperature for 1 hr with 100 μl of a 1:2000 dilution of a secondary antibody (A21433, Invitrogen). After being washed three times with PBS, the cells were counterstained with a DAPI-containing mounting medium (H-1200, Vector Lab), and examined by Confocal microscopy (Zeiss, LSM710).
Comparison was made of degradation efficiency between the bispecific antibody and a combination of the monospecific antibodies.

internalization into a cell and degradation of EGFR: induced by neither
B1: anti-EGFR ab: scFv-Fc antibody recognizing EGFR: SEQ ID NO: 109 and 111 variable domains fused to N-terminus of IgG2 Fc (antibody, V domains shown)
VH: QVQLVQSGAEVKKPGSSVKVSCKASGFTFTDYKIHWVRQAPGQGLEWMGYFNPNSGYSTYAQKFQGRVTITADKSTSTAYMELSSLRSEDTAVYYCARLSPGGYYVMDAWGQGTTVTVSS
VL: DIQMTQSPSSLSASVGDRVTITCRASQGINNYLNWYQQKPGKAPKRLIYNTNNLQTGVPSRFSGSGSGTEFTLTISSLQPEDFATYYCLQHNSFPTFGQGTKLEIKRT
modifications: IgG2 Fc without entry; linker; Synthetic (heavy-chain variable region of anti-EGFR antibody); Synthetic (light-chain variable region of anti-EGFR antibody)
internalization into a cell and degradation of EGFR (listed as anti-EGFR antibody): did not provoke the degradation of EGFR at all
